Test: soluble on expression in E. coli; label from the status in PepcDB or PDB records

Sequence	soluble on expression in E. coli
GSHMNGEPDIAQLKGLSPSQRQAYAVQLKNRGNHFFTAKNFNEAIKYYQYAIELDPNEPVFYSNISACYISTGDLEKVIEFTTKALEIKPDHSKALLRRASANESLGNFTDAMFDLSVLSLNGDFDGASIEPMLERNLNKQAMKVLNENLSKDEGRGSQVLPSNTSLASFFGIFDSHLEVSSVNTSSNYDTAYALLSDALQRLYSATDEGYLVANDLLTKSTDMYHSLLSANTVDDPLRENAALALCYTGIFHFLKNNLLDAQVLLQESINLHPTPNSYIFLALTLADKENSQEFFKFFQKAVDLNPEYPPTYYHRGQMYFILQDYKNAKEDFQKAQSLNPENVYPYIQLACLLYKQGKFTESEAFFNETKLKFPTLPEVPTFFAEILTDRGDFDTAIKQYDIAKRLEEVQEKIHVGIGPLIGKATILARQSSQDPTQLDEEKFNAAIKLLTKACELDPRSEQAKIGLAQLKLQMEKIDEAIELFEDSAILARTMDEKLQATTFAEAAKIQKRLRADPIISAKMELTLARYRAKGML	soluble
MSNYVIQADQQLLDALRAHYEGALSDRLPAGALFAVKRPDVVITAYRSGKVLFQGKAAEQEAAKWISGASASNETADHQPSALAAHQLGSLSAIGSDEVGTGDYFGPIVVAAAYVDRPHIAKIAALGVKDSKQLNDEAIKRIAPAIMETVPHAVTVLDNPQYNRWQRSGMPQTKMKALLHNRTLVKLVDAIAPAEPEAIIIDEFLKRDSYFRYLSDEDRIIRERVHCLPKAESVHVSVAAASIIARYVFLEEMEQLSRAVGLLLPKGAGAIVDEAAARIIRARGEEMLETCAKLHFANTKKALAIAKRRK	soluble
MSFSESRHNENCLIQEGALLFCEQAVVAPVSGDLVFRPLKIEVLSKLLAFIDGAGLVDTTYAESDKWVLLSPEFRAIWQDRKRCEYWFLQQIITPSPAFNKVLALLRKSESYWLVGYLLAQSTSGNTMRMLGEDYGVSYTHFRRLCSRALGGKAKSELRNWRMAQSLLNSVEGHENITQLAVNHGYSSPSHFSSEIKELIGVSPRKLSNIIQLADK	not soluble
MTKSILLVGVGGQGTILASKLLTMGLMEAGYDVKMSEIHGMSQRGGSVSSQVRYGDCVHSPVIEIGGADILVSFEKMEALRWFNYLKPEGKALVNNHRIDSMTVLIGGAEYQESDIDAELSRLNAKVINAADKAEELGNSKIMNVILLGCLVKSMQLESIDWEKIISENVKPKFVELNIKAFHEGMEMVSK	not soluble
MRRKETLQETPLTYQELASKILPELHLLAQEAGIEGYKRMKKDQLIMALLERQTQGEGLRLVKGYLEISQDGYGFLTENLHNLESRVAIVSAGLIKQYALRAGDYVVGQARPPRENERYATLLKVEAVNNLDPEAAKNRPRFDELTPQFPDRQIRLETTPDELSTRVIDLLAPIGRGQRGLIVAPPKAGKTTLLKKIANAVLKNEPDIKVIVLLIDERPEEVTDFRESVQGAEVIASTFDEPPQNHIRVAEFVHERAKRIVEEGGHVMILLDSITRLARANNLVTPPTGRTLSGGLDSAALYFPKRFLGAARNIRGGGSLTILATALVETGSRMDDVIFEEFKGTGNMELHLSRRLEERRIFPAIDILKSGTRREELLLGEEVTHKMWLLRKVLADMDPAEAMEMLLARLARTKNNKEFLASLAAR	soluble
SLQIKKLFIALGIVLPLHMQGQNFLIKDAPEVIESYVNQFNREDNELYKQDIPNCGASDFLRKNIPFFECPDKELEKTYYFRWWTYRKHIKKTPDGFVITEFLPDVPWSGKYNTISCAANHHFYEGRWLRNAEILSDYASFWFSGSGNPRLYSFGAADAIYNYYLIHNDKMLLADLYPKLKDNFAKWEEEKRDSTGMFWQVDDRDGMEMSVSGHLSEGGRGYRPTINSYMYGEAVALAKIASIVDRDMEARTYQKKADKLKGIINRRLWDKQADFYKVIPLNGKMEFSYARELLGYIPWFYNIPPDNYSIAWKQLFDSKGFEAAYGPTTVEQRCPDFKISYEGHECQWNGPSWPYLTSMTLAAMANYFNSYDSPIITKKDYLSLLNIYSNSHRILSVNNDTICWIDENINPYTGDWISRTRLKSWKNGTWDDSKGGVERGKDYNHSSFCNLIISGLMGVRPQEDGSIIINPLVPDGCWDYFCLDNVYCQGKTITIIFDKKGKKYGRGKGFIVYVDDKCLSHTTRVQKVVIR	not soluble
GSDQVQKVDQYLYHMRLSDETLLEISKRFRKEMEKGLGATTHPTAAVKMLPTFVRSTPDGTEHGEFLALDLGGTNFRVLWVKVTDNGLQKVEMENQIYAIPEDIMRGSGTQLFDHIAECLANFMDKLQIKDKKLPLGFTFSFPCHQTKLDESFLVSWTKGFKSSGVEGRDVVALIRKAIQRRGDFDIDIVAVVNDTVGTMMTCGYDDHNCEIGLIVGTGSNACYMEEMRHIDMVEGDEGRMCINMEWGAFGDDGSLNDIRTEFDQEIDMGSLNPGKQLFEKMISGMYMGELVRLILVKMAKEELLFGGKLSPELLNTGRFETKDISDIEGEKDGIRKAREVLMRLGLDPTQEDCVATHRICQIVSTRSASLCAATLAAVLQRIKENKGEERLRSTIGVDGSVYKKHPHFAKRLHKTVRRLVPGCDVRFLRSEDGSGKGAAMVTAVAYRLADQHRARQKTLEHLQLSHDQLLEVKRRMKVEMERGLSKETHASAPVKMLPTYVCATPDGTEKGDFLALDLGGTNFRVLLVRVRNGKWGGVEMHNKIYAIPQEVMHGTGDELFDHIVQCIADFLEYMGMKGVSLPLGFTFSFPCQQNSLDESILLKWTKGFKASGCEGEDVVTLLKEAIHRREEFDLDVVAVVNDTVGTMMTCGFEDPHCEVGLIVGTGSNACYMEEMRNVELVEGEEGRMCVNMEWGAFGDNGCLDDFRTEFDVAVDELSLNPGKQRFEKMISGMYLGEIVRNILIDFTKRGLLFRGRISERLKTRGIFETKFLSQIESDCLALLQVRAILQHLGLESTCDDSIIVKEVCTVVARRAAQLCGAGMAAVVDRIRENRGLDALKVTVGVDGTLYKLHPHFAKVMHETVKDLAPKCDVSFLQSEDGSGKGAALITAVACRIREAGQ	soluble
MIRGEYLLRELNQNILLQSCQEFVKDYLDTICSFYLGKEVWYRFTELTNTEANCLVGTKEFFDEGHPLFGYRGTRRLLACLDEFQAEAHVVTEVYQTNPNLSVIFPFVNDADQLKQAITVLRQQGFTGKVGTMIELPSAYFDLSSILETGISKIVVGMNDLTSFVFATMRNSQWHDMESPIMLDMLRDMQDKARKNKIDFAVAGYLNTSFIQKMNQLGIKCIIHYSSIPEIFDLEIDHPDHLKHIKEESKKLQRSTHDTARNVE	soluble
LRRTALNGRFCRLEPLDVDRHAADLFAAYALGDNSDWTWLASTRPESVTATAHWIAGKVNDDVLVPYAVVDLRSEQAVGIVSYMAIEREMGTVEIGHVTWSRRMKNTPLGTEAVWLLLKNGFDHGYRRLEWKCDSMNVASRRAAERLGFSWEGRLRQRLVRKGRTRDSDMLSIIDGEWPARD	not soluble
MSLKPLFGEKDESNISPITKQLTEEEASKVIAEVNGEQILYKDFYFIYSQQAAYYGLTTEDEDSLSDDTKEILNTIKKELLTQLIQQKLAKQKAKEAGYEVTKERLDEASEAIEEMIRNMAEQMKLSSPSEAESRDFLKEARDFINSELKAMRITMDEYIRDTAEYMIVTDFMEDLTKDIVVTDEEIKKYYDEQLKIQQENPEEAAYAEVQLIQPASSRVKHILIALPEEEQQEYQNLKSEGKDEEAEAYLKEKLEAIKPKAEEVLNKAKNGEDFEALIKEYGEDPGMESEQYKDGYTVTKNSGFIKSFEDASLALGVGEISDLVEGPYGYHIIKVYEKTEAKPYTQEEKKSEIESLLKSQKKTNFMNEKMKEWESASTIVRHDDEGHHHHHH	soluble
MTELARLKFYATQPHTCSYLPEEQATTLFLDPSQPMDVQVYADLSDMGFRRSGDHLYRPHCQNCSACVPARIPVNLFVPDRQQKRILKRNADIQVSSAKPVFTQEYFDLYQRYIEQRHADGDMFPPSREQFSTFLVRDLPFSRFYEFRVDQRLLAVAVTDLLPNGLSAVYTFYEPDEERRSLGRYAILWQIGEATRLQLQAVYLGYWIKNCKKMNYKTQYRPIELLTNQRWVTLYLEHHHHHH	not soluble
MKNLVEEKEAFRFGVSGDIGSFSEEAALLYARKKGLNAHLVHLLDMEGVLNAIENETIDLGILPVVNLLGGLVKPAFQAMGKYSFTPIDEIWHDINQCLLVKTNTQNHKITHIVSHPQGFAQCKKFLRNKFKNAKKIEWIDTAKAAKDLAEGILPPHAAVIASARCAPLYDLKISARNIQDSHLNRTAFILVKKLEHHHHHH	not soluble
MSLADRLTIGEFSRITHLSIRMLRRYHEQDLLVPAEVDPDTGYRYYSPAQIRPALTVRRFRDLDLPLADLRRFLAAESADGPDDGTAQQVVAAHLRRLEDRLGRTQRAVEVLRELLDPEAEREGHHHHHH	not soluble
MTSFTIPGLSDKKASDVADLLQKQLSTYNDLHLTLKHVHWNVVGPNFIGVHEMIDPQVELVRGYADEVAERIATLGKSPKGTPGAIIKDRTWDDYSVERDTVQAHLAALDLVYNGVIEDTRKSIEKLEDLDLVSQDLLIAHAGELEKFQWFVRAHLESAGGQLTHEGQSTEKGAADKARRKSA	soluble
MTQLRHFSHGASVFDIDSVEDFTEKVIQSSVPVIVDFHAEWCGPCQALGPRLEEKVNGRQGSVLLAKINVDHAGELAMDYGISAVPTVFAFKNGEKISGFSGVLDDEQLDDFIEDVLAA	not soluble
MVTVVDRVTDRRLRHPEKAHRPDTSVQKKPDWIRVKAPTSQVYKETHGIVRAHKLVTVCEEAGCPNIGECWSQRHASFMILGEICTRACAFCNVATGIPFAVDENEPERVADAVARMELKHVVITSVDRDDLADGGAEHFAKVIYAIRRKAPKTTIEVLTPDFRHKDGALEIVVAAKPDVFNHNLETVPSKYLKVRPGARYFHSIRLLQRVKELDPTIFTKSGIMVGLGEERNEILQLMDDLRSADVDFMTIGQYLQPTRKHHPVIRFVPPEEFESFAKIGKVKGFLHMASNPLTRSSHHAGDDFAILQKARDEKFALQR	not soluble
MGSDKIHHHHHHMKKLHGFENEYLFVLPPVILNNFNFSKVIKLLYITDLGFYPKARYHFVHRDRGTEEWILIFCTHGKGVVKSATEEWLIESGSIVLLPPGKEHTYYAFDDDPWDIFWAHFNGDSVNEYIPQEALQGNGFLVINKTSTEDMQMLMSQFWQMIQALSAGFSYQSVFYSSQVLGATLAYVSLQSVLPHDSYTMGNEYITKAVKYIYDHFEEKVSLSTLTEVLDVSKSYLSRIFRQTVGTSVNQFILDIKMKQACYYLKDTNLAVHQIASRLGYDDPYYFSRIFKKVVGSSPRVFRKQEKNRL	not soluble
MNFLEASWEEREVTAYKAILGDTGLGIFPLSHELFKRMSASGINPRWLTHGVFKSPPNGNRSTWAYITSGMSNPWETNEPEEHSGLGVEFIIETEKEETWAVEVLQMLMAYNLLLAAGQMGDFPLLGDGDRVPLALSDAIRTMMFTQPVSFPHCFSLKSGRVDLLQVVGITPAELQVAKQTSSDKIRTQLISKLGSLVTSKERESVVLEHHHHHH	not soluble
MNLESITVVLPTRNEAGNIGAFLASLPQAVHLIVVDASEDETPDIIQRERPARTQVLRRRSTITQARQLGAEAALTDWLLFTDADIVFPDGYFDALERVMDAAVVYGPKLSRDRFAAYYRWFGYGQQCSHWLGIPAATGSNLLVRKDALIAVGGFDPALVCNEDSELVWRIKRAGYRIRFEPSLPVYARDHRRLDSGLWRKTCHSVFRCALLYWDLMPARWRGADWGYWSPQQSGRAPGVSRVELEHHHHHH	not soluble
ANAFLEELRPGSLERECKEEQCSFEEAREIFKDAERTKLFWISYSDGDQCASSPCQNGGSCKDQLQSYICFCLPAFEGRNCETHKDDQLICVNENGGCEQYCSDHTGTKRSCRCHEGYSLLADGVSCTPTVEYPCGKIPILEKRNASKPQGR	soluble
